Test results as given in the supplement of paper PMC12042874.
± gives the uncertainty stated by the source.

Experiment: amyloid nucleation score (Sup35N fusion, yeast selection) (log enrichment); library NNK3; higher = more nucleation; inactive = no reads after selection
In short: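 Libraries of peptides of 20 random codons fused to Sup35N were expressed in psi-negative yeast and induced 24 hours with 100 μM copper sulfate. Selection was 7 days at 30°C on medium lacking adenine and uracil, and plasmid inserts were Illumina-sequenced before and after selection. Nucleation score is the DiMSum log enrichment of output over input reads, centred on the mode score of non-aggregating sequences, and sequences with under 100 input reads were left out.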

Amyloid nucleation score, 1.82 ± 0.099:
GLNLISISFRAGFAGMHRRA

Amyloid nucleation score, 0.511 ± 0.21:
GANFVCSVECRLVRRNSRYD

Amyloid nucleation score, 2.55 ± 0.076:
GADVSSHVKIFINYNLFSFI

Amyloid nucleation score, 1.2 ± 0.15:
GDTVLVILSILSVGCC

Amyloid nucleation score, -0.668 ± 1:
GNLDTS

Amyloid nucleation score, -0.521 ± 1:
GPNDLSMAFRTLYDQAVPYV

Amyloid nucleation score, -0.619 ± 0.93:
FYRAYSDYFWKTMFSYLGTS

Amyloid nucleation score, 0.592 ± 0.24:
GLTLRRWINAFHRHVGNKGQ

Amyloid nucleation score, 0.504 ± 0.24:
GDTHHCAADGV

Amyloid nucleation score, 1.32 ± 0.13:
FVCLT

Amyloid nucleation score, 0.988 ± 0.16:
GCKMVGRICSDIICSVGVME

Amyloid nucleation score, 2.51 ± 0.061:
FVWLWVVISLNCSNNEFVFN

Amyloid nucleation score, -0.37 ± 0.39:
FVMFAKASRGCTVSLCVYDV

Amyloid nucleation score, -0.257 ± 0.98:
FVSKHRVSTIWRVISHMRGG

Amyloid nucleation score, -0.223 ± 0.73:
GFHTI

Amyloid nucleation score, 0.614 ± 0.29:
GELPLRVKVKSFHTDTSLRK

Amyloid nucleation score, 0.804 ± 0.11:
FVYFKLGVMSPLQTTNTHLS

Amyloid nucleation score, -0.405 ± 0.8:
GRYCWCSLLAKYEMSLPRAR

Amyloid nucleation score, 1.65 ± 0.093:
GHCEYVVCYVNCRFVQMSVR

Amyloid nucleation score, 0.769 ± 0.24:
GLCNTYCFHHCFRWVR

Amyloid nucleation score, 0.406 ± 0.31:
FVRTLCCLAYVWHYDLRYC

Amyloid nucleation score, 1.05 ± 0.2:
GCVLCGIPSAWRSPGASSDA

Amyloid nucleation score, -0.566 ± 1.4:
GGNICPIRPLSRKEWELGRH

Amyloid nucleation score, 0.381 ± 0.15:
GCFIGDVRMSMSCSKFLCIE

Amyloid nucleation score, 1.17 ± 0.19:
FVCLKNFIFNRYKADGD

Amyloid nucleation score, -0.155 ± 0.93:
GKCLLYRFILILLHP

Amyloid nucleation score, 0.811 ± 0.16:
GDRRER

Amyloid nucleation score, 1.29 ± 0.067:
GLTVCTSYLSISAYDMYANL

Amyloid nucleation score, inactive:
FTNFDNFSFYASWLCG, FTRSLETYYFGKNDVWFSLS, FTRWIWFIVITSASCFKSFH, FTSLLAVYSIPLQWGATT, FTSQYIYDAIRRLRKMSIMS, FTWARETVPVVQNWFGTREV, FTWSVHKVDEVCHLLETGDA, FTWYRR, FVESSDLMRMSWFWWTGWDL, FVGRFCMFNLGRCLPIVLGS, FVLESFCRPLHSWVAGMGV, FVLFAYWHARPNTISRGCDH, FVQGYSFWYWVETYMFIRFV, FVRANYIWWNSWYLECYIGR, FVRPFGRVFIFQKDFSIKVC, FVSLLWLRGDVVHALFIQWM, FVTRHLNFCM, FVVGHENNFLKFANSLSRL, FWMMDYMYSVRMNFVWGYIR, FWNEVMNRLPGLL, FWNSFHFVNNYWHVY, FWSFRPGHITLSIGHTRIAG, FWTGVACNTAGCCLGYESLR, FWWVKC, FYKLRHQVRTKISERYLPDS, FYLYPDVERLNFCIMVRHMF, FYMWFMRTGLTKYPNGAIKV, FYMYLTSVCA, FYPLICQRLKRSNIPGVWP, FYRFFDSV, FYSAISVAAYIEMTWESVDM, FYSFFILSIGSSIPCLRSHM, FYTIGWGWNQKCGIFRHMVR, FYVRVALRVSLLLWSGFTWV, GAFRTFYMLMWSYLCISGSV, GAIRLRSVNSNLGWLTAPLR, GAMLRVGV, GARLAVW, GAVWFIRRRPKDRIRRVSLW, GAWVTATWAFDAVLFCPGKM, GCKTREVLLYWLIMRPGGYS, GCLRDPTVAQVDYLGYGVRL, GCRYQGHCHVYYLAERIACD, GCSLGTHSVTLTFM, GCSSVRAGH, GCTDIHASEH, GDCFWSPDKNWIALEVFQTF, GDDIEILSFEVWRVFSKSWS, GDDSSRHFNEFLYNRFAALW, GDLKLGLVIYESCGSMVMSW, GDNRFLYELFLPHLNVVSNL, GDVRLFTCRMLGILFFSIT, GERTVLVKGLMRCIWVPVIW, GFGGSSAHDRGYETRKSSLE, GFLSGVKVLNGGEDNDTLPE, GFSTYRIKIVYDVNMY, GFYRLVVQGLVVSRGLNWCV, GGALAKNHILCR, GGCHNGCGFYCRRN, GGHLLGHIASVFMEFCALQC, GGKMMFFKIRFFC, GGQVRDCDNVEQCSATNSEG, GGTVFSNCVGVRRLNMYINY, GGWIY, GGYSQKLYILYDYLFENYYS, GGYVDLRLMT, GHNVQGNRLMITYDLNIVGS, GHRHQFSHATVNDVKSRV, GHVAHLINILYVNSTIPQTG, GINDLISSALNNSRRLRTVG, GIREAV, GIRVF, GISRMGMAEDPDSGWSHDYY, GISYLVRNSGAKRGD, GITRVRSSFVSAASHV, GKCVGEPPAQSEKTWRNGSL, GKIEDYCLVRESQAIPSLLQ, GKLSNH, GKWKIKQ, GLCSFR, GLDRRKICKLHGYGNS, GLFIGYDVQ, GLFLGYSLIASVIGRLVDNL, GLGYWAKGSHLWVLLRLLNH, GLLMFLNVCLVVTVSARTYS, GLMERNDMSEYSSAG, GLSKKKECGFLLARIVVVVV, GLYVVYFNILTTKGYQLIVM, GMCKGMVIGSAVDFTMFSAA, GMFARHVFMIIEPHRIIVFH, GMQAGTGSKCCGRTGQI, GMQPVQQ, GMVMVLQTTRYNCHMMRELQ, GNALSAFPVGSFRKVVRCHG, GNDNYVVLFNCDV, GNELQSEFLDFLTCRERGKG, GNLASICVRLCWLCARLWST, GNNRGTVSWVERGAWALTKA, GPARTRWILPRVLGCTYRAA, GPILL, GQAVNYFGGA, GQWLSDTR, GRARNHHRKNRGIGL, GRHRFYSAIKQVQR, GRIFYWRDMDTYQR, GRKAWDEL, GRMWSACLGYMWGCFWREFW, GRPIKWKKRSAVK, GRPRVI, GRQYVCYYTFLKLYWLKSMW, GRSRLQQVIHLAFTIKSVNG, GRTSWGRRR, GRVSYCITRME, GSACFPYFYTYSFRFLVAC, GSEHYLPSYYRFFLLVFYDV

Amyloid nucleation score, 0.127 ± 0.29:
GFGGFGRVDNSLCIKAPCCV

Amyloid nucleation score, 0.448 ± 0.27:
FTYDCECALICINYT

Amyloid nucleation score, 1.65 ± 0.11:
GFYVLMISVTLMDSQTPLR

Amyloid nucleation score, 2.43 ± 0.054:
GKIFMSVTFF

Amyloid nucleation score, 0.578 ± 0.15:
FVTYCVRQETV

Amyloid nucleation score, 2.43 ± 0.053:
GIRVSLGVSFRECFNNSVSR

Amyloid nucleation score, 0.441 ± 0.32:
GRSFCVAMVVIEGVLYRDLS

Amyloid nucleation score, 0.674 ± 0.12:
FYRFISAMFYDWDSWIICGN

Amyloid nucleation score, 2.64 ± 0.064:
GIVSYCICIFGNFQK

Amyloid nucleation score, 0.296 ± 0.21:
GFYLVVKTINGFPNNLKWMA

Amyloid nucleation score, 1.87 ± 0.064:
FYNFWWCI

Amyloid nucleation score, 1.21 ± 0.15:
GCTCQ

Amyloid nucleation score, 2.52 ± 0.054:
FTNISVNNAVFVFVVCTAV

Amyloid nucleation score, 0.252 ± 0.24:
GGSCTDSVVIEGI

Amyloid nucleation score, 0.021 ± 0.88:
GIMSCQ

Amyloid nucleation score, 0.855 ± 0.2:
GFESPRGFSSVFSIVYGFWA

Amyloid nucleation score, 1.51 ± 0.078:
FVYYANYQYFRPFYKMSWHQ

Amyloid nucleation score, 1.45 ± 0.064:
FVKSVRYSL
